In US20070134256A1:

B1: fusion peptide … (peptide)
peptide: DRGWGNGSGLFGKGG
modifications: not checked
B2: chimpanzee Fab 1A5 (Fab, V domains shown)
VH: EVQLLESGGGLVQPGGSRRLSCAASGFTISDNVMHWVRQAPGKGLEWVALIYSADTTHYADSVKGRFTISRDNSKNTLYLQMDSLRPEDTAVYYCAREYCTGDTCFAHFDYWGQGTLVSVSS
VL: ELQMTQSPSSVSASVGDTVTIACRASQSITNYLSWYQQKPGKAPKLLIYHASTLQSGIPSRFSGSGSGTDFTLTISSLQPDDFATYYCHYGYGTHTFGQGTKLEIKRT

What was measured:
chimpanzee Fab 1A5 = experiment: competition ELISA: Fab 1A5 (1.04 nM) pre-incubated with peptide in serial dilution, then binding to DENV-2 coated wells
[1] = biological target: DENV-2 antigenic variant NGC-V2 (dengue type 2 virus), P14340; experiment: cell-based or functional assay

Binder	IC50 (chimpanzee Fab 1A5)	PRNT50 titer [1]
B1	170 µM	–
B2	–	> 70 µg/mL
